Data reported in US20220396612A1 (UNIVERSIT DE TOURS, published 2022).

How the values were obtained:
Experiment in all cases: ELISA on denatured VLP (carbonate pH 10.6 + DTT; threshold OD>0.5)
[1] = target: T1, denatured VLPs of BK polyomavirus VP-1 protein, serotype Ia (BK virus (BKPyV), serotype Ia, UniProt P03088 1-361)
T1 construct: also called Ia denatured; linearised VP-1 protein
T1 chain: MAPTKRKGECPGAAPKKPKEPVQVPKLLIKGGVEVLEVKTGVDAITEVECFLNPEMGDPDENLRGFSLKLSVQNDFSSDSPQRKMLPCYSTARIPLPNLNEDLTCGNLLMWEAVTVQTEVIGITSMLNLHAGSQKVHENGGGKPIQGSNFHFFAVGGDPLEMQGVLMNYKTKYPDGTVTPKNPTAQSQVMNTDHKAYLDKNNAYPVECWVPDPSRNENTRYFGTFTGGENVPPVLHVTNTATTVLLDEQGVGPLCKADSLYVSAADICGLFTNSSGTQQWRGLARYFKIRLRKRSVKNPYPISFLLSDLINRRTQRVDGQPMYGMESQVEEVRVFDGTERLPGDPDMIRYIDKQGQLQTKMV
Procedure: (§1) The wells were then blocked for 1 hour at +37° C. with a PBS/SVF mixture. After dilution in a dilution buffer containing SVF, PBS and Tween® 20, the individual culture supernatants or purified antibodies were added for 1 hour at +37° C. The wells were washed four times in a row with Wash Buffer and a secondary anti-mouse peroxidase antibody was added to the 1/2000 dilution for 1 hour at +37° C. The wells were washed again four times in a row and the substrate was added for 30 minutes at room temperature. A stop solution was added and then each well was read by measuring the absorbance at 492 nm with a spectrophotometer. The value obtained for the average of the control wells (PBS in the first step) was subtracted from the optical density values obtained for each well (detection threshold: OD>0.5).

[2] = target: T2, denatured VLPs of BK polyomavirus VP-1 protein, serotype Ib2 (BK virus (BKPyV), serotype Ib2, UniProt P03088 1-362)
T2 construct: also called Ib2 denatured
T2 chain: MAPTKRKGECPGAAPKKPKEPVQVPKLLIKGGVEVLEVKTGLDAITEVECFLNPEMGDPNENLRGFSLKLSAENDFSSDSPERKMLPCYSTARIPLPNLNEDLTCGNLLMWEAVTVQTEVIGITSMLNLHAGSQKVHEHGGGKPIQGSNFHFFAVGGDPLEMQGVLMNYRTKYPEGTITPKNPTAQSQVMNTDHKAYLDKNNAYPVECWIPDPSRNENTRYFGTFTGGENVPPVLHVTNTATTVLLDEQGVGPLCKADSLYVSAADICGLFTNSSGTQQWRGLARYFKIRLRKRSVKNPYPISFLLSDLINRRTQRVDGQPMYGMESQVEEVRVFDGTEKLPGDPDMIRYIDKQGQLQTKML
Procedure: as §1

[3] = target: T3, denatured VLPs of BK polyomavirus VP-1 protein, serotype II (BK virus (BKPyV), serotype II, UniProt P14996 1-362)
T3 construct: also called II denatured
T3 chain: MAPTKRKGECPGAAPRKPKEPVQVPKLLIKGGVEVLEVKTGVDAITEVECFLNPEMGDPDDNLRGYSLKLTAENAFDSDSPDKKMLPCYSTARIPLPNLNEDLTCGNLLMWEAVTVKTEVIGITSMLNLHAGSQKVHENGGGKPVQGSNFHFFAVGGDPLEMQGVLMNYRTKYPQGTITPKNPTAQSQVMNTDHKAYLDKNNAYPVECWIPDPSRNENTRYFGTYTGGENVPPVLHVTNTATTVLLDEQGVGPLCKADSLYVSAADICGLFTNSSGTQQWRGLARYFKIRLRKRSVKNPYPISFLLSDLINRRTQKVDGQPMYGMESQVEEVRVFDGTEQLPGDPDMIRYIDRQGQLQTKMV
Procedure: as §1

[4] = target: T4, denatured VLPs of BK polyomavirus VP-1 protein, serotype IV (BK virus (BKPyV), serotype IV, UniProt P14996 1-362)
T4 construct: also called IV denatured
T4 chain: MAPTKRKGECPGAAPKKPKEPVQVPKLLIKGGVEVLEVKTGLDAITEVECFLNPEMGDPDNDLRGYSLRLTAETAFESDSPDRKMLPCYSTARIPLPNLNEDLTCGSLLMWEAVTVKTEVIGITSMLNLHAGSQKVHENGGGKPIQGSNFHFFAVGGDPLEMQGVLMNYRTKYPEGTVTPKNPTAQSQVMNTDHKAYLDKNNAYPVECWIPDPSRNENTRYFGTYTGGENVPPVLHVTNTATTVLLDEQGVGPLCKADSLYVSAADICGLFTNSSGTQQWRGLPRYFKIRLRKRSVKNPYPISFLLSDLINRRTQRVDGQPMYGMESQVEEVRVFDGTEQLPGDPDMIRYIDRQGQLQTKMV
Procedure: as §1

B1: monoclonal antibody ‘18A2’ derived from hybridoma 18A2 (antibody, V domains shown)
VH: DVQLQESGPGLVKPSQSLSLTCSVTGYSITSGYYWNWIRQFPGNKLEWMGYISYDGSNNYNPSLKNRISITRDTSKNQFFLKLNSVTTEDTATYYCARWEGTTDYWGQGTTLTVSS
VL: not shown
notes: Mouse hybridoma antibody
OD 492 nm [1]: 3.98 OD
OD 492 nm [2]: 0.16 OD
OD 492 nm [3]: 0.63 OD
OD 492 nm [4]: 0.709 OD
